# According to the supplement of paper PMC6757056:
# ± gives the standard deviation of the averaged measurements.
# B1: library; a variant is named by its letters at N, in order (parent)
# chain: GCUGUCACCGGUGCUUGGUACGUUAUAUUCAGCCGGUCUGAUGAGUCUNNNNNNAGACGAAACAGC
# Key:
# (6R,S)-folinic acid [1] = variants of: B1; assay: normalized RNA/DNA level without ligand (relative to sTRSVctl = 100) (log10 (% of sTRSVctl)); HEK293T overexpressing SLC46A1; higher = less ribozyme self-cleavage, higher mRNA level; conditions: without (6R,S)-folinic acid; ligand present: no
# Method in brief: (§1)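 Library plasmids carrying ribozyme switches linked to mCherry, or to eGFP in some ligand experiments, were transfected into HEK293T at 4 µg per 6-well well, with any ligand added 1 h earlier. Seventy-two hours on, total RNA was extracted with EDTA and reverse-transcribed, amplified, barcoded and sequenced. RNA level was RNA over DNA reads normalized to a spiked-in non-cleaving sequence or to the top sequences, then scaled and log-transformed. The top set was 25 sequences, the transform was ×100 and log10, and sequences needed ≥100 DNA reads.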
# (6R,S)-folinic acid [2] = variants of: B1; assay: normalized RNA/DNA level with ligand (relative to sTRSVctl = 100) (log10 (% of sTRSVctl)); HEK293T overexpressing SLC46A1; ligand concentration (+) RNA-Seq: 6 mM; higher = less ribozyme self-cleavage, higher mRNA level; conditions: with (6R,S)-folinic acid; ligand present: yes
# Method in brief: as §1
Variant,"normalized RNA/DNA level without ligand (log10) ((6R,S)-folinic acid [1])","normalized RNA/DNA level with ligand (log10) ((6R,S)-folinic acid [2])"
GCUGUCACCGGUGCUUGGUACGUUAUAUUCAGCCGGUCUGAUGAGUCUUUGAGCAGACGAAACAGC,2.006 ± 0.005,2.05 ± 0.049
GCUGUCACCGGUGCUUGGUACGUUAUAUUCAGCCGGUCUGAUGAGUCUUUGAGUAGACGAAACAGC,1.925 ± 0.015,1.96 ± 0.025
GCUGUCACCGGUGCUUGGUACGUUAUAUUCAGCCGGUCUGAUGAGUCUAUGAUAAGACGAAACAGC,1.946 ± 0.017,2.002 ± 0.019
GCUGUCACCGGUGCUUGGUACGUUAUAUUCAGCCGGUCUGAUGAGUCUAUGAUCAGACGAAACAGC,2.07 ± 0.028,2.06 ± 0.032
GCUGUCACCGGUGCUUGGUACGUUAUAUUCAGCCGGUCUGAUGAGUCUCUGAUAAGACGAAACAGC,1.9701 ± 0.00086,2.02 ± 0.048
GCUGUCACCGGUGCUUGGUACGUUAUAUUCAGCCGGUCUGAUGAGUCUCUGAUCAGACGAAACAGC,2.0695 ± 0.0006,2.038 ± 0.013
GCUGUCACCGGUGCUUGGUACGUUAUAUUCAGCCGGUCUGAUGAGUCUAUGACCAGACGAAACAGC,2.046 ± 0.0045,2.024 ± 0.014
GCUGUCACCGGUGCUUGGUACGUUAUAUUCAGCCGGUCUGAUGAGUCUUUCUUGAGACGAAACAGC,1.914 ± 0.0095,2.02 ± 0.023
GCUGUCACCGGUGCUUGGUACGUUAUAUUCAGCCGGUCUGAUGAGUCUUUCUUUAGACGAAACAGC,2.047 ± 0.0094,2.04 ± 0.035
GCUGUCACCGGUGCUUGGUACGUUAUAUUCAGCCGGUCUGAUGAGUCUUUCUUCAGACGAAACAGC,2.05 ± 0.028,1.996 ± 0.012
GCUGUCACCGGUGCUUGGUACGUUAUAUUCAGCCGGUCUGAUGAGUCUGUGAACAGACGAAACAGC,1.908 ± 0.0094,2.012 ± 0.0064
GCUGUCACCGGUGCUUGGUACGUUAUAUUCAGCCGGUCUGAUGAGUCUGUGACUAGACGAAACAGC,2.029 ± 0.0025,2.04 ± 0.041
GCUGUCACCGGUGCUUGGUACGUUAUAUUCAGCCGGUCUGAUGAGUCUGUGACGAGACGAAACAGC,1.95 ± 0.017,2 ± 0.032
GCUGUCACCGGUGCUUGGUACGUUAUAUUCAGCCGGUCUGAUGAGUCUAUGAACAGACGAAACAGC,1.95 ± 0.004,1.97 ± 0.048
GCUGUCACCGGUGCUUGGUACGUUAUAUUCAGCCGGUCUGAUGAGUCUUUGAUAAGACGAAACAGC,1.978 ± 0.0072,2.03 ± 0.029
GCUGUCACCGGUGCUUGGUACGUUAUAUUCAGCCGGUCUGAUGAGUCUGUCUUUAGACGAAACAGC,2.047 ± 0.0022,2.04 ± 0.064
GCUGUCACCGGUGCUUGGUACGUUAUAUUCAGCCGGUCUGAUGAGUCUGUCUUCAGACGAAACAGC,2.073 ± 0.0035,2.027 ± 0.0036
GCUGUCACCGGUGCUUGGUACGUUAUAUUCAGCCGGUCUGAUGAGUCUCUGACCAGACGAAACAGC,2.05 ± 0.017,2.01 ± 0.033
GCUGUCACCGGUGCUUGGUACGUUAUAUUCAGCCGGUCUGAUGAGUCUCUGACAAGACGAAACAGC,1.996 ± 0.01,2.03 ± 0.022
GCUGUCACCGGUGCUUGGUACGUUAUAUUCAGCCGGUCUGAUGAGUCUCUGACGAGACGAAACAGC,2 ± 0.006,2.046 ± 0.02
GCUGUCACCGGUGCUUGGUACGUUAUAUUCAGCCGGUCUGAUGAGUCUCUGACUAGACGAAACAGC,2.028 ± 0.004,2 ± 0.023

Variant,"normalized RNA/DNA level without ligand (log10) ((6R,S)-folinic acid [1])","normalized RNA/DNA level with ligand (log10) ((6R,S)-folinic acid [2])"
GCUGUCACCGGUGCUUGGUACGUUAUAUUCAGCCGGUCUGAUGAGUCUAUCUUCAGACGAAACAGC,2.07 ± 0.022,2.05 ± 0.045
GCUGUCACCGGUGCUUGGUACGUUAUAUUCAGCCGGUCUGAUGAGUCUAUCUUUAGACGAAACAGC,2.07 ± 0.025,2.087 ± 0.017
GCUGUCACCGGUGCUUGGUACGUUAUAUUCAGCCGGUCUGAUGAGUCUAUGAGGAGACGAAACAGC,1.812 ± 0.017,2.009 ± 0.013
GCUGUCACCGGUGCUUGGUACGUUAUAUUCAGCCGGUCUGAUGAGUCUCUGAGGAGACGAAACAGC,1.948 ± 0.005,2.02 ± 0.029
GCUGUCACCGGUGCUUGGUACGUUAUAUUCAGCCGGUCUGAUGAGUCUCUGAGCAGACGAAACAGC,2.0258 ± 0.00095,2.01 ± 0.019
GCUGUCACCGGUGCUUGGUACGUUAUAUUCAGCCGGUCUGAUGAGUCUCUGAGUAGACGAAACAGC,2.052 ± 0.016,2.058 ± 0.015
GCUGUCACCGGUGCUUGGUACGUUAUAUUCAGCCGGUCUGAUGAGUCUUUGACUAGACGAAACAGC,2.0063 ± 0.0015,2.04 ± 0.053
GCUGUCACCGGUGCUUGGUACGUUAUAUUCAGCCGGUCUGAUGAGUCUUUGACAAGACGAAACAGC,1.956 ± 0.018,1.98 ± 0.021
GCUGUCACCGGUGCUUGGUACGUUAUAUUCAGCCGGUCUGAUGAGUCUUUGACGAGACGAAACAGC,1.866 ± 0.0091,1.996 ± 0.019
GCUGUCACCGGUGCUUGGUACGUUAUAUUCAGCCGGUCUGAUGAGUCUUUGACCAGACGAAACAGC,2.04 ± 0.0038,2.04 ± 0.032
GCUGUCACCGGUGCUUGGUACGUUAUAUUCAGCCGGUCUGAUGAGUCUCUGAAGAGACGAAACAGC,1.881 ± 0.0031,1.995 ± 0.0079
GCUGUCACCGGUGCUUGGUACGUUAUAUUCAGCCGGUCUGAUGAGUCUCUGAAUAGACGAAACAGC,1.96 ± 0.003,1.99 ± 0.045
GCUGUCACCGGUGCUUGGUACGUUAUAUUCAGCCGGUCUGAUGAGUCUCUGAACAGACGAAACAGC,1.99 ± 0.035,1.99 ± 0.024
GCUGUCACCGGUGCUUGGUACGUUAUAUUCAGCCGGUCUGAUGAGUCUCUCUUCAGACGAAACAGC,2.063 ± 0.0046,2.01 ± 0.024
GCUGUCACCGGUGCUUGGUACGUUAUAUUCAGCCGGUCUGAUGAGUCUCUCUUUAGACGAAACAGC,2.013 ± 0.011,2.02 ± 0.041
GCUGUCACCGGUGCUUGGUACGUUAUAUUCAGCCGGUCUGAUGAGUCUCUCUUGAGACGAAACAGC,2.04 ± 0.021,2.03 ± 0.028
GCUGUCACCGGUGCUUGGUACGUUAUAUUCAGCCGGUCUGAUGAGUCUUUGAAUAGACGAAACAGC,1.955 ± 0.0032,2.01 ± 0.025
GCUGUCACCGGUGCUUGGUACGUUAUAUUCAGCCGGUCUGAUGAGUCUUUGAACAGACGAAACAGC,2 ± 0.023,2.025 ± 0.016
GCUGUCACCGGUGCUUGGUACGUUAUAUUCAGCCGGUCUGAUGAGUCUGUGAGCAGACGAAACAGC,1.74 ± 0.024,1.962 ± 0.011
GCUGUCACCGGUGCUUGGUACGUUAUAUUCAGCCGGUCUGAUGAGUCUGUGAGUAGACGAAACAGC,1.96 ± 0.025,2.03 ± 0.025
